A protein production outcome set (Wang et al. 2014)

Test: label from the status in PepcDB records
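Also: failed if final PepcDB status was selected cloned or expressed and not failed if soluble or beyond.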

| Sequence | protein production |
| --- | --- |
| MKMIETSLASASAALRDRVDEILAAATREDGCAPLSESFLNGLRRADDGHVHSCVMDSHDQVVGVAARDGDSAEVVVDPAFRRQGYGSFLIRHVVSQGVKNVWAHGDGAGAKAVAKALQLEQTRQLLVMAVEGDRLVESAQLQVPSGFRVLALNEAYESIPDIEQQWLRVNNEAFEWHPEQGGWDSARLAQARDTQWFRESDVLFLIDTAKRTVAGFHWTKRHGDLAEGADGEVYVVGLGSAYRRRGLGDLLIRMGLHHLEYEHARRVILYVEGDNESARRAYDALGFHVVESHVTYSPQSSS | failed |
| MKMIQFWFDFASTYSYPAAMQIRQLKDEYRFSLHPFLLGGIFQKQGLNDSPFNAYPVKGQYMWRDLERICQKLDLKFHRPVLFPQNGLLAARIACQYASAPWIFDFICSVYQANFVQNLDIGQPETISQILQNMQLDCNDIIMTSTTDTAKQTLKQNGMIAESLHIFGAPSFVVENELFWGQDRLQDAIDWSQR | failed |
| MKMRKLVKDFGDDYTLIQDSQEVKAILEYIGSEEEPHALFVKVGDGDYEEVWGIDSFVPYNFLEAYRLK | not failed |
| MKMTVVGFWGGFPEAGEATSGYLFEHDGFRLLVDCGSGVLAQLQKYITPSDIDAVVLSHYHHDHVADIGVLQYARLITSATKGQLPELPIYGHTFDENGFHSLTHEPHTKGIPYNPEETLQIGPFSISFLKTVHPVTCFAMRITAGNDIVVYSADSSYIPEFIPFTKDADLFICECNMYAHQEAAKAGHMNSTEVASIAKDANVKELLLTHLPHTGNPADLVTEAKQIFSGHITLAHSGYVWNS | not failed |
| MKNFLETIEDMILIINREGRLLYANTAVPKKLGYPHEELMSMHILTITSAGKMAEGEKILAELFAGKKESLPLSLEKKEGTSIPAKARIWQGKWHNEPCLFAIIKDLSKEERASSPPFLEPDEIHTGISGAAWCEKPDFASDISCELKDEEPSKPRVLIVDDQLFNLKLLESALKEDYIVMTADNGIEALELATGKSQPDIILLDIIMPVMDGYEVCIRLREMPETRDIPVIFLSALKNEKNEEYALQLGVVDYITKPFSLPIIKGRLRNHVEQKKYRDRQKENSYIDELTQIANRRKFNETVTIEWNRARRNGNSLSVLMIDVDCFKKYNDFYGHLEGDKCLYKIAQTLKSNVKRSSDLVARWGGEEFACVLTDTDRIGAMLVGERLRRAVVKLNIPSEISDVDRVVTASIGVATALPAVDNSLEELLHKADMALYKAKKTGRNCVCTP | failed |
| MKNHLITVLVCCLFFIGCKDDKANSNQYDPSQPVVFTDFSPKEGGMRTRLYIEGSNFGNDPTKIHITIGGEKTKTIGADGKKIYCMVPSKAFDGIINVRVDGPDGKPIAEHTFEEEFKYTPATIVGTLLRKVDEDNNSAFQEGSFDEGASIPSNDCMVFDPKYKDGDNRLLFSSNHSDGLHLIDLTERTVKRLFPRTGYSTMYSFTFSADGDTLLFTDDHGQDNTTRANIYYSLRRENFRRIRPYNYGRTAYSLVYMDDGTIFYTTWWEGKVYKMIRNGAIPNIDENAEVAFSLSQISAVGGSHTILFRHPSNKFMYMLSDNFGAVFRADYDPVAKTFGNPSIIAGNMNDKSFKEGTGGSARFNKPQFGVFVKNEKYGEGIGPDNDQYDFYFCDRENHCIWKLDPHGVASLAAGRSNENADGKIWGYVDGNPLHEARFNQPAGLAYDPDTDMFYIGDIDNKGIRYMTTE | failed |
| MKNIIPQALLTMPILSTGLQAQEKQPTPNLVFIMADQYRGDAIGCIGKEPVKTPHLDKLASEGINFTNAISSYPVSSPARGMLMTGMYPIGSKVTGNCNSETAPYGVELSQNARCWSDVLKDQGYNMGYIGKWHLDAPYKPYVDTYNNRGKVAWNEWCPPERRHGFDHWIAYGTYDYHLKPMYWNTTAPRDSFYYVNQWGPEYEASKAIEYINGQKDQKQPFALVVSMNPPHTGYELVPDRYKEIYKDLDVEALCKGRPDIPAKGTEMGDYFRNNIRNYYACITGVDENVGRIIEALKQNNLFDNTIVVFTSDHGICMGAHENAGKDIFYEESMRIPMILSWPDQIKPRKSDPLMIAFADLYPTLLSMMGFSKEIPETVQTFDLSNEVLTGKNKKDLVQPYYFVKFDNHATGYRGLRTDRYTYAVHATDGKIDNVILFDRTNDPHEMNNIASQQLKLTHTFNRQLKTWLEKTNDPFAQYIKLKLEHHHHHH | not failed |
| MKNIVVIGAGNIGSAIAWMLAATGDYRITVADRSADQLANVPAHERVDTEIVDIADRPALEALLKGKFAVLSAAPFHLTAGIAEAAVAVGTHYLDLTEDVESTRKVKALAETAESALIPQCGLAPGFISIVAADLAARFDKLDSVRMRVGALPQYPSNALNYNLTWSTDGLINEYIEPCEAIVEGRLTAVPALEEREEFSLDGVTYEAFNTSGGLGTLCATLEGKVRTMNYRTIRYPGHVAIMKALLNDLNLRNRRDVLKDLFENALPGTMQDVVIVFVTVCGTRNGRFLQETYANKVYAGPVSGRMMSAIQITTAAGICTVLDLLAEGSLPQKGFVRQEEVALPKFLENRFGRYYGAHEPLARVG | failed |
| MKNKIILGCLAAAACEILFGLSFIFTKSITAQASGLALISWRFVTAFFFVNLYLLTKRQKVVINGRNIKPLIRIAILNPIIYFICETIGIRMTTASESGAFLACIPVVALIMSSLILKEWPSRWQVVGVATTLIGIIIAVFAAGGSTNFSLVGYFILGLAVVSYALYCVDVEKASQFTSFEITYFMLASGCLTFGLFALSHSFLAGNLKELLTLPWSNPKFAITILYQGLGCSVIGYILSNFAIATIGVNRTASFIGISTIISILAAVVFLGEPFSQLQILAGILVVLGVYVANKN | failed |
| MKNKKNNYDLMYFIPLVFLIYPIGGILYYHYPFWTLFFTLAFVGAYLYSVIIRGESKYHMIAWSTMLTYIFYMTIFINSGFIWYIYFLSNLLVYRFRDKLKSFRFISFACTLATVVFLCFFKASDFGDRIMFLIVPIFCIGYMWIAIENRNSEEQREKIAEQNQYINILSAENERNRIGRDLHDSLGHTFAMMTLKTELALKLLEKRNYDKVQKELSELNHISHQSMSEVRQIVSNLKYRTVVEEIDELYRLFQLSNIKLTVVNKLETSQLSPVTQSTITMILKELSNNIVKHAEADSVELSLVRQGATINIEMIDNGCGFTNLDGDELHSIQERLTIVEGTLTILSRSKPTHIQVVLKEV | failed |
| MKNLHRCKKIFLRVFSRSARRQREPLQDAVLDLHQGAFGGFAPCSAPVQLKRKRPMTKPETTAPTAKAVLPIGLLIAVLAMVAVLLLPLPADLPVAGHRMLAILAFAVVVWISEAVSYEASAIMITALMAFLIGTAPTLQDPSQLYGSSAAIGLALTGFSNSALALVAGALFIAAAMTHTGLDRRIALVTLTRVGTSTRRILIGAIAVTILLSLLVPSATARSACVVPIMMGVIAAFGVDKRSNIAAGLMIVVAQGTSIWNVGIQTAAAQNLLTVGFMDKMLGQRVAWLDWLIAGAPWAVIMSLVLLWLVLKLLPPETDSIPGGKEAVAQSLADIGPMTGPQKRLLTVSVLLLLAWSTEGKLHPFDTTTTTYAGLVILLLPRIGIMTWKDVQSRIPWGTVIVFGVGISLGSALLSTQAGQWLGSQVVAHTGLDQVGPLAVFAILAAFLILIHLGFASATALTSALLPILIAVLQTLPGEFSRLGMTMLLGFVVSYGFILPINAPQNMVCLGTETFNARQFAKVGLLVTLIGYLLMLVFAMTWWKWLGWM | failed |
| MKNMVIVLTGVTVVAGALLGYVNELTKEPIAQANAKALSDAIAIVVPGFDNNPAEAPETIELEGVTYKIYKATKGGEFIGAAVESSANGFGGALNVLVGFDKEGNIIDYSLLSHAETPGLGSKAADWFKKGGKGDITGMNPGQKALVVNKDGGQIDAITASTITTRAFLKAVNNAYAAYSGQNVDGSSGATQQVSETAADDPKAAKAQCEGTQDCCGQACDSAACKAACGGKCDPANCDKADCKKAECPKQDCKNKK | failed |
| MKNNKKGLWGIIVAVGLFLLSKLKWVFAIFKLAKFSTVFSMFLSLGAYAVLYGWKFGVALIYLLFVHEMGHLWAAKRKGIPTSPAIFIPFMGALIGMKEMPKNAKDEAYIAYMGPLFGLLSFLPAIPLYIMTKEPFWALVILLGSMINFFNLIPVSPLDGGRIISVVSTKIWGAGLILLLGYSIYFKSILGGFIVIIGCMELYRVIKRDEPIKELGHKIYGMKEYVTRLEEELKETGAVHRTIYVMHHEMNALRQREREKELQIGELKKMEVLEYLLPKFEPLDYVPYEDEKDEYTIHIREAFEASERKLNEWKTEKEQQENYYKVDAKTKWTVFACYIGLMVILGYTAYEGYIVLQEHLPTRNV | failed |
| MKNPAEIDVADQQRLESMAVGGLIGFRTLLYKEVLRFWKVSFQTVAAPVLTAVLYLLIFGHVLEDRVRVYDQISYTAFLVPGLVMMSVLQNAFANSSSSLIQSKITGNLVFILLPPLSHWEMFGAYVVASIIRGLCVGLGVLLVTAWFANLHFAHIGWILVFGLMGAGILGTLGLIAGIWAEKFDQLAAFQNFLIMPATFLSGVFYSIHSLPAFWQAVSHANPFFYMIDGFRYGFFGVSDVPPLQSLAVVVVAFVVLAALALRLLRNGYKLRY | failed |
| MKNQFVKCISQLLFLLLIIGVLPVYAQKKSKEKIYRLPDDLETLAGDPALLKKPEGLTVAAYAFPNYHASALHNKIYSQGWTEYNLIRSARPWFEGHQQPRTPLLGELDESKPSTWETYNKLCKQSGIDVLIWDWYWYDGKPCLHEALENGFLEASNTKDVKFACMWTNHPWYVLYPTKRTDGSNAYPPSFDAPDFSKEECWKSLSYMISRYCHLENYWRIDDKPVICIWDARRLESKLGIAGVKQLFAELTDYAKKLGHKGLHFHVTGFSCGNMKEEGYDTVGSYNPMDWIAGRFQPKEIELPDYGTVAADVAFKLWDEHHGQFDIPYVPAVAPGWDSTPRYIAPANRPAKADRSQWPGCTIFKNENPASFKAFVQSSFVYLNKHPEVPRILTIACFNEWSEGHYLLPDNRFGYGMLDALGEALGKEGNHEKHGKLEHHHHHH | not failed |
| MKNQSPVPSYEGNVFMIDARDLSIAWSEDSNHWTWLPLPNQNSNTILSSESVMEIAFLKSASWLDVAGKFDTRYLTPRTRYEVVFVVKLEYTFEWETLVKLKLDLPNTWEKPQEQSVDMFDYISDQWLDIPVGEFTTSKKNVGEISFAMYEHECQLWKSGLFVKGVTIRPKY | failed |
| MKPALVVVDMVNEFIHGRLATPEAMKTVGPARKVIETFRRSGLPVVYVNDSHYPDDPEIRIWGRHSMKGDDGSEVIDEIRPSAGDYVLEKHAYSGFYGTNLDMILRANGIDTVVLIGLDADICVRHTAADALYRNYRIIVVEDAVAARIDPNWKDYFTRVYGATVKRSDEIEGMLQEDQIET | not failed |
| MKPIQLPLSVRLRDDATFANYYPGANAAALGYVERLCEAEAGWAESLIYLWGHDGVGRSHLLQAACLRFEQFEERTIYLPMADLVQYGPEIFDDLEQCELVCIDDLDVLVGKREWEEGLFHLFNRLRDTGRRLLLAASKSPRELQVKLPDLKSRLTMALIFQLHGLSDEDKLRALQLRASRRGLHLTDEVGRFILNRGSRSMNSLFDLLEQLDRASLQAQRKLTIPFLKETLGWLEHHHHHH | not failed |
| MKPLRKIRLGIVGCGIAARELHLPALKNLSHLFEITAVTSRTRSHAEEFAKMVGNPAVFDSYEELLESGLVDAVDLTLPVELNLPFIEKALRKGVHVICEKPISTDVETGKKVVELSEKSEKTVYIAENFRHVPAFWKAKELVESGAIGDPVFMNWQIWVGMDENNKYVHTDWRKKPKHVGGFLSDGGVHHAAAMRLILGEIEWISAVAKDLSPLLGGMDFLSSIFEFENGTVGNYTISYSLKGNERFEITGTKGKISISWDKIVLNEEEMKVPQENSYQKEFEDFYQVVAEGKPNDLGSPVQALKDLAFIEACVRSAGNKVFVSSLL | not failed |
| MKPMEAAMGLIRFCLLFLALATPVNAAKLFLTTEVYPPYNLQASDGSVHGVYFDQLKIVLQDTDTDYEVAVMPWARAIALATTQAMHCVFATARTPEREKLFKWVAPIHTDRNILVARREANIEASSLEDARRYRVGTQRGDYTEALLEKLGFPQVDVGADFEITLNKLKLGRIDLMPMSESTLKSLPANSFKEVITLSRQQLGLACNKTVPDQIIAKLQARLDKLIADGTQQQIFDRYSLVSP | failed |
